This assay has as its target spliceosomal snRNP core Sm proteins, endogenous in cell extracts. Description: co-IP with Y12 from transfected 293T cells, Western blot. In general terms: A western blot detects proteins with antibodies after separation by electrophoresis.

The substance “myc-tagged SMNΔC26 (from UniProt Q16637 1-268)” had an amount co-immunoprecipitated relative to wild-type SMN (fraction of wild type) of 0.33.
